Assay results published in the DeepSol protein solubility set.

test: soluble on expression in E. coli; label from the status in PepcDB or PDB records

Soluble on expression in E. coli, not soluble:
MGSDKIHHHHHHMEYINEVTINEAIIHVLDNSSEGVVFNEVELELNEETYEYILKHIQKCLKDEELKYAVFNVERNLAKELSQEYLDGKSDIVSVSKELASQLFVIMKSNGNIPSCDLLTAAITTEYGRMLVVLKMDYVKNYTHNIDVVDDKVEINIIPQFIGLPSSGQKIQKCAFIKPIREENNFDLMVIDKNSGKKDEDEYGSNYFINNYLGCKIINNERDLTKTFVKSAEKWTQKNLKDNADAAELVRTSIKKRLKEDDSININEVSDEIFGENKEAKDNFVEFIKKQGIEEKIELDKQWVENKMKRTRLKIDKDIDLYINEETYNDSSRFEIKRNGDGTINMIIKQVRNYVEK, MGSDKIHHHHHHMFEIKTDDFEGIEIVKLINTVSGEYASIIPSFGGNIHELVLQKHNILHDVIYTNKNKEELSGFYSNLYRGAKLNPFSNRIDKGSYIFENISYSIPLNDAGIHALHGFVWNKPFSITASKTSFEFATLTLSYTHPKDSADFPFSYTLLVTYKLCIEGLMVTTQITNTSPTAIPMGDGWHPYLTLGSSINTLKLQIPSVQKIETTDTLIPTGKIIEDISFFEPALLGERELDNAFVLDSSVEKAETLLFDEEEDLTLVVWQQTDTYPFVHVYTPSDRMSVAIEPCSAIPDAFNRNMIETTLKPAEKKSYVFGIQLR, MGSDKIHHHHHHMFEKRVLKIKGGSNFRDLGGYQTHDGKKILWGRLFRGSALNNFTNHDLRVLKRRHINTIIDFRSLDESLNDPDIYPETSNDIRLTVLDQDTTYSTITPEEFHRLSHSNGFAYKQMMNTYRRLITDEFSQQAYRQFFDYLLNQDDGAILFHCTKGKDRTGIATALFFLAVGIDKKTIFQDYLLTDTYNHEQTEVELERMVERGEDDDDIDNVKHFLLTDRNYLENAFAAMDEIAGSPQAYLKKYLGLSDEKIQILRNKYLS, MGSDKIHHHHHHMFEWVEKISFSEASPLTAQAQDNKFGFHRKRPEVMAHSHWHGHIEINYLFDCSADYLINGQEISVPEGRMIIFWASIPHQMTACHGDGEIVNIYIPLQAFLTWMLPGEFVSQLLHGEVMVSDSLYVCDRQLTQIWEADIASQEPLLASQVINEIRNRIRRMAIEHYSTFNLAHRSGHGVDKPVFGGLNHIQTMLRYIADHYDQKITIENVAMSTGLHKNYAMKLFNRVMKVSIKQYINQLRLQHAQALLIDTENPVLNIALEAGFGSVSRFYDIFQREFNMSPLEFRRRVG, MGSDKIHHHHHHMFGLIPKEEKFFAMFKDMAANIVTGGKLLKQMLDSYDDPQASQKKIKDVEHACDAITHDIIQKLNKSFVTPFDREDIYALAAALDDIVDLIDASAQRFIMYNVEKPTPEAKELAFLILQGCLAIEKAVSHLGEKFEHIAEHCVEVNALENEADRVCREAISRLFDEEKDPIQLIKWKEIYETLERATDKCEDAANILESVVVKNA, MGSDKIHHHHHHMFIENYCPISADRISFTRQQGSDFAKQVADDFNPLHNIDAKRFCVPGDLLFSIIIAKSGLHKNMTFDFSGMVSDDVHLTFPQEIDESFDIKDDKDKTCLSVHVSGDKTHESVLINALTKAYVDFSGHTFPDILVKLMADNSVMINPARPMVMYQSMSIDLHTLTAETVTLKLAKTSLSIEGKRGDAWLEFDLLSNDKVIGHGKKHMLLSGLRTYEQETIDAMVNQYRDSKKNYQA, MGSDKIHHHHHHMFNESDAPQPPKVLSTPLEIAANLRQLQESHDPLIITFHDRSHRFQSYVVHVDRESNTLALDEMIPRDGEKFIENGEHFRVEGFHDGVRIAWECDHALKISEVDGHRCYSGPLPQEVTYHQRRNAFRAALKLSQLVDIILDGAHLKGNGAMRGKLLDISATGCKLRFEGNVEDRLQLGQVYERFKAGNPLGLVDTMVELRHLHYEERINTTFAGVRFHNLSGQAQRKIESFVYQLQREARRFDKDDY, MGSDKIHHHHHHMFNLKPELVARLERVLTSVEMLLPRPTAPVDWSVCHAASWRRHSFSGYLEPVRQTDTVTLPELLGIEKQKEVMTNNTLQFLRGLPANNALLWGSRGTGKSSLVKALLNEYAAQGLRIVQVEKEDLIYLSEIFAAVENEPYRFILLCDDLSFEVGELSYKMLKSALDGSVYSAPENVLIYVTSNRRHLIPEYESDNVGWKYVNGELQQSEAMEEKISLSDRFGLWVAFHVFSQDRYLEAVRLCIEREARQRRVEIPWAKEIEREAIQWSHDKSKRCGRTAFQFSRHWVGRYLLGGR, MGSDKIHHHHHHMFTPRGFKFAGVHCKIKRKRKDLGIIFSEVPCVAAGVFTTNVVKAAPVIYDMEILKKNPNGIKAVVVNSGVANACTGEQGMINARRMAEKTAEELGVPVESVLVSSTGVIGVQLPMDKVENGIEEAARVLSNDPLPFAEAIMTTDTKVKMHSTKVMIDGKEITVLGIAKGSGMIHPNMATMLSFITTDAKISEEALKKLLKLSVDDSYNMIDVDGDTSTNDMVIVLANGLAGNTTIQPETDGFWKLYEAVHEVNQVLAEKIVEDGEGATKVMEVHVINAPDIKSARLIARSIVSSNLVKTAIYGEDANWGRVIAAAGYSGATFDPEKLDLFFESEAGRIKVAENGQGVSFDEEEAKKILSEKKIRIILDMKQGKETAKAWGCDLTEKYVEINGRYRT, MGSDKIHHHHHHMFVQARIDTTQDALVWPVVEFQGWVAFFGQRDSFDVYLNGDRVDNVHTVARPDVEEVLGAGWASIGWHVVCDIGQSARDNGHAIIFDVRVRTQTVAQGCFRYKDRLETTTQPLKIILHMPKTGGTSLRLALEEHRKNLFLLPLYHRDFSAIKSLSSLSVDRLDVAYGHVLYGIHEQIARPVTYMTVLRNPYDFVTSLYFFAKYVQRDHSILAAENIVDAVNTVNRPEFDNYYTRTIAGIQPEEPVTEEDLQRAIKNIDTHFSFIGLAERSRQSFRIFSEVFGLPLRYLKENVTPDLVEREFMNFRSVNEEIKKCINLDLILYKYAIKKFWYMDIE, MGSDKIHHHHHHMFVWHEYENAAEAAQSLADAVADALQGALDEKGGAVLAVSGGRSPIAFFNALSQKDLDWKNVGITLADERIVPTNHADSNTGLVREYLLKNKAAAAVWIPMVEDGKTETELHPDAVVDYALKHYKQPDVLILGMGNDGHTASIFPKAPQFQTAIDGSAGVALVHTTPVTAPHERISMTLDAIAHTGHVFLAIQGEEKKAVFDQAAQGENREYPISLVLNHQGVNCHVFYAE, MGSDKIHHHHHHMFWFKNVMIYRLTNALQLASNELEPLLQQHRFIGCSQSEMSKFGWTAPLAKTEQLHFCHTKQFLLISHKEDKLLPANVIKAETEERIALLEEKENRKLKKTEKQAIKDDVIAMLLPRAFSKHQFTAIWLDLDAQLVYVDAASSKRAEASLALLRKTLGSLPVVPLSFVQLPAEVMTNWLAKGHTPNWLTLLEEAELKSFETESVIRCKKQELESDEICYHLQAGKLVTKLAIEWENHFSCVLNNDATLTRLKFAGEIIEKNDDILKEDIAQRLDADFLLMTEELRLFTQKLIEEFGGIKE, MGSDKIHHHHHHMGCKSVYADSCWISSPTLNFGSVNTQQVSSKTDLDVTCNQYNNVKTSFNLCFYIEDNSPLGINPRRLISLSWPFDYLNYDLYYDPSFSRMIDNKAAPNNLLCKSLQIENNGQQTVQIPIYGKVYANQNVKADNYQSYNMTVKLLYKSKTGDVVPSVEETLAQQNMVQNYMKTTTKFENSCAVVGVNTLDFGSIISLNQPIYGQTSIQLKCPTNTALKVGLDTGLYASGTQRRMTNAGQFIQYDLYQDSAYSIAWGTSDNSVLKLDTYQPVFTIPVYGRILPQNQNLKAGEYRDTITIKLTY, MGSDKIHHHHHHMGDKVLKIGSVHQCNCCMGSKTLHPLVSVIDLSKADLSSHTDFKFGFYTILLSECKCEAYRYGHQYYDFSDGTLLCLTPGESISMKDSDNTRPSKGWILAFHPDLICGTALGANIRDYTFFSYRPEEALHVSLREKQVILELLDKINEELQRCIDCYSQKIISKYIELLLDYCERFYERQFITRNEANKKIIERFDRLLDDHFNTIQSQSSDLPTIEECVRVLRLSPAYFNDLLEYETGKSYKEYLQFKRFEIAKEWLINTDKTLSQIAQELGFRNPQYFSRLFKKITGCLPNDFKMPN, MGSDKIHHHHHHMGENMKILISVCGEGFGHTTRCVAIGEALKNDYEISYIAYGKSKNFIEKYGFKVFETFPEIKLKGKDGKFDITSSILNKEYSPKKAIRREINIIREYNPDLIISDCKYSTVVAAKLLKKPVICISNQNYTRYKLKTDLIVYPTMKALNIINERCERFIVPDFPLPYTICEYNLKIIKNMEFIGPLIRYDVDDVDNYGEDYILSVIGGFEYRYKILEELGKIALKNNLNVKLVCGSYEVAKKLMRDLNLNSYKNENVEIIPITTNMKELIKNAELIVSHGGHSTIMEALSFGKPLIVIPDLDHPEQGNNAKKVHDLGCGIALSYKELYRLEEAILDIRNMKMYKRNASKMKELAKKYDGKKNIKKIIDEFFETRKNIRKYYLTDRIANKLINKFKLKIR, MGSDKIHHHHHHMGEVIKNRYEFVVLFDVENGNPNGDPDAGNMPRIDPESGLGIVTDVCLKRKIRNYIETVKEDEDGYKIYIKENVPLNRSDREACKSLGINDDEDKKVTEALKKLKKSDKDADIKLRDYMCRNFYDIRAFGAVMTTFVKASLNCGQVRGPVQLGFARSIDPVISQEVTITRVAITTEKDAENKSNEMGRKSIVPYGLYRVEGYISANLARKVTGFSEEDLELLWDAVINMFENDHSAARGKMAVRELIVFKHSKELGDCPAYKLFDAVKVQKNDDIQYPRKYQDYTVTINDDEIPDTVEVKRMI, MGSDKIHHHHHHMGGLKMKVIILGSGSYSGTPKPLCTCENCTRARINPAFRRTRFSVYIEGGILIDPGPDLHYHLEKLNKEVETILITHAHFDHIFGLPDAQVFKKLTIASNPLGIKVARSLAMLAFNSEAPLGNDWDYVELKFWNEYKVNGVKVIHFPVVHSIEMAGGFLIERKNKTVAITGDTGPEIIRDSEVIDLIKGSDLLISEMTHKESIPKTHLGVNDAIELAKIVKAEQTVFAHISHSNYPQEILEKKVREAKISGIVARDFTIIEI, MGSDKIHHHHHHMGHKVTGSDANVYPPMSTQLEQQGIELIQGFDPAQLGKEGDNQPDLVVIGNAMSRGNPCVEAVLNRGIKYTSGPQFLSEHILQDRWVLAVAGTHGKTSTSSMLAWVLEYCGYEPGFLIGGVPQNFGVSARLGNSVFFVVEADEYDSAFFDKRSKFVHYHPRTLVINNLEFDHADIFADLAAIQRQFNHVIRTVPGEGKVIWPSDVEAVQQVIDMGCWSEQEIYSKATSLTTGLAEHSVNVSANQGEPNAWQPRTIADDGHEFEVLFKGESQGIVNWSLIGQHNIENAIMAIAAARHVGVAPSHAIEALAQFSPPKRRLELLATVNGVSVYDDFAHHPTAIATTLQGLRAKVASSDNANGNIIVVLEPRSNTMKSGVHKDTLANSMVLADVGYLYQADNIDWDIKASMANAPIPVTVFNNIEDIINAVAATANQGDTVVIMSNGGFNGIHQKMIKALA, MGSDKIHHHHHHMGKKHTSSYEVAYYDGDFTGAMKIPALLAVVIKVSEEQTELLGRDAAYVAQFGLGWVITNYEIEIHRLPKVGEKVAITTQAMSYNKYFCYRNFWVHDEEGKECVFVKSTFVLMDQKNRKISSVLPEIIAPFASAAITKIYRHEKIEKVTEGNFLPYRVRFFDIDGNQHVNNAIYFNWLLDVLGYDFLTTHQPKKILVKFDKEVEYGQEVESHYEIVEQENQLKTRHEIRIDGQTYCEANIDWTN
